B1: HDV Ribozyme (parent)
chain: GGCCGGCAUGGUCCCAGCCUCCUCGCUGGCGCCGGCUGGGCAACAUUCCGAGGGGACCGUCCCCUCGGUAAUGGCGAAUGGGACCCA

Variants of: B1
Assay: self-cleavage, relative activity (ratio to wild type); higher = more cleavage; co-transcriptional

First: GGCCGGCAUGGUCCCAGCCUCCUCGCUUGCGCCGGCUGGGCAACAUUCCGAGGGGACCGUCCCCUCGGUAAUGGCGAAUGGGACUCA [G28U C85U]
Second: GGCCGGCAUGGUCCCAGCCUCCUCGCUGGCGCCGACUGAGCAACAUUCCGAGGGGACCGUCCCCUCGGUAAUGGCGAAUGGGACCCA [G35A G39A]
The self-cleavage of the first is lower: 0.0639 for the first, 0.219 for the second.

First: GGCCGGCAUGGUCCCAGCCUCCUCGCUGGCGUCGGCUGGGCAACAUUCCGAGUGGACCGUCCCCUCGGUAAUGGCGAAUGGGACCCA [C32U G53U]
Second: GGCCCGCAUGGUCCCAGCCUCCUCGCUGGCGCCGGCUGGGCAACAUUCCGAGGGGACCGUCCCCUCGGUAAUGGCGAAUAGGACCCA [G5C G80A]
The self-cleavage of the first is higher: 0.811 for the first, 0.256 for the second.

Compared with UGCCGGCAUGGUCCCAGCCUCCUCGCUAGCGCCGGCUGGGCAACAUUCCGAGGGGACCGUCCCCUCGGUAAUGGCGAAUGGGACCCA [G1U G28A], GGCCGGCAUGGUCCCAGCCUCCUCGCUGGCGCCGGCUGGGCAACAGUCCGAGGGGACGGUCCCCUCGGUAAUGGCGAAUGGGACCCA [U46G C58G] is higher in self-cleavage: 0.292 for the first, 0.89 for the second.

Going from GGCCGGCAUGGUCCCAGCCUCCUCGCUGGCGCCGGCUAGGCAACAUUCCGAGGGGAGCGUCCCCUCGGUAAUGGCGAAUGGGACCCA [G38A C57G] to GGCCGGCAUGGUCCUAGCCUCCUCGCUGGCGCCGGCUGGGCAACAUUCCGGGGGGACCGUCCCCUCGGUAAUGGCGAAUGGGACCCA [C15U A51G], the self-cleavage rises from 0.224 to 1.07.

Going from GGCCGGCAUGGUACCAGCCUCCUCGCUGGCGCCGGCUGGGCAACAUUCCGAGGGGACCGUCCCCUCGGUAAUGGCGAAUGGGACUCA [C13A C85U] to GGCCGGCAUGGUCCCAGCCUCCUCGCUGGCGCCGGCUGGGCAACAUUACGAGGGGACCGUCCCAUCGGUAAUGGCGAAUGGGACCCA [C48A C64A], the self-cleavage rises from 0.141 to 0.867.

Going from GCCCGGCAUGGUCCCAGCCUCCUCGCUGGCGCCGGCUGGGCAACAUUCCGAGGGGACCGUCCCCUCGGUAAUGGCGAAUGGGACCAA [G2C C86A] to GGCCGGCUUGGUCCCAGCCUCCUCGCUGGCGCCGGCUGGGCAACACUCCGAGGGGACCGUCCCCUCGGUAAUGGCGAAUGGGACCCA [A8U U46C], the self-cleavage rises from 0.128 to 0.554.

First: GGUCGGCAUGGUCCCAGCCUCCUCGCUGGCGCCGGCUGGGCAACAUUCCGAGGGGACCGUCCCCUCGGUAAUGGCGAAUGGGACCCU [C3U A87U]
Second: GGCCGGCAUCGUCCCAGCCUCCUCGCUGGCGCCGGCUGGGCAACAUUCCGAGGGGACCGUCCCCUCGGUAAUGGCGAAUGGGACCCU [G10C A87U]
The self-cleavage of the first is lower: 0.725 for the first, 0.984 for the second.

Going from GGCCAGCAUGGUCCCAGCCUCCUCGCUGGCGCCGGCUGGGCAACAUUCCGAGAGGACCGUCCCCUCGGUAAUGGCGAAUGGGACCCA [G5A G53A] to GGCCGGCAUGGUCCCAGCCUCCUCGCUGGCGCCGGCUGGGCAACAUUCCGAGGCGACCGUCCCCUAGGUAAUGGCGAAUGGGACCCA [G54C C66A], the self-cleavage rises from 0.248 to 0.814.

Compared with GGCCGGCAUGGUCCGAGCCUCCUCGCUGGCGCCGGCUGGGCAACAUUCCGAGGGGACCGUCCCCUCGGUAACGGCGAAUGGGACCCA [C15G U72C], GGCCGACAUGGUCCCAGCCUCCUCGCUGGAGCCGGCUGGGCAACAUUCCGAGGGGACCGUCCCCUCGGUAAUGGCGAAUGGGACCCA [G6A C30A] is lower in self-cleavage: 0.119 for the first, 0.0421 for the second.

Going from GGCCGGCGUGGUCCCAGCCUCCUCGCUGGCGCCGGCUGGGCAGCAUUCCGAGGGGACCGUCCCCUCGGUAAUGGCGAAUGGGACCCA [A8G A43G] to GGCCGGCAUGGUCCCAGCCUCCUCGCUGGCACCGGCUGGGCAACAUUCCGAGGGGACCGUCCCCUCGGUAAUGGUGAAUGGGACCCA [G31A C75U], the self-cleavage falls from 0.415 to 0.122.

First: GGCCGGCAUGGUCCCAGCCUCCUCACUGGCGCCGGCUGGGCAACAUUCCGAGGGGACCGUCCCCUCGGUAAUAGCGAAUGGGACCCA [G25A G73A]
Second: GGCCGGCAUGGUCCCAGCCUCCUCGCUGGCGCCGGCUGGGCAACAUUCCGAGGGGACCUUCCCCUCGGUAAUGGCGAAUGGCACCCA [G59U G82C]
The self-cleavage of the first is lower: 0.0583 for the first, 0.228 for the second.

First: GGUCGGCAUGGUCCCAGCCUCCUCGCUGGCGCCGGCUGGUCAACAUUCCGAGGGGACCGUCCCCUCGGUAAUGGCGAAUGGGACCCA [C3U G40U]
Second: GGCCGGCAUGGUCCCAGCCUCCUCGCUGGCGCCGGCUGGGCAACAUUCCGAGGGGACCGUCUCCUCGGUAAUGGCGAAUGGGAGCCA [C62U C84G]
The self-cleavage of the first is lower: 0.594 for the first, 0.692 for the second.

Going from GGCCGGCAUGGUCCCAGCCUCCUCGCUGGCGCCGGCUGGGCAAGAUUCCGAGGGUACCGUCCCCUCGGUAAUGGCGAAUGGGACCCA [C44G G55U] to GGCCGGCAUGGUCCCAGCCUCCUCGCUGGGGCCGGCUGGGCAACAUUCCGAGGGGACCGUCCCCUCGGUAAUGGCGAAUGGGACCUA [C30G C86U], the self-cleavage falls from 0.65 to 0.0332.

First: GGCCGGCAUGGUCCCAGCCUCCUCUCUUGCGCCGGCUGGGCAACAUUCCGAGGGGACCGUCCCCUCGGUAAUGGCGAAUGGGACCCA [G25U G28U]
Second: GGCCGGCAUGGUCCCAGCCUCCUCGCUGGCGCCGGCUGGGCAACAUUCCGAGGGGACCGUCCCCUCGGUAAUGGCCAAUGGGCCCCA [G76C A83C]
The self-cleavage of the first is lower: 0.0652 for the first, 0.201 for the second.

First: GGCCGGCAUGGUCCCAGCCUCCUCGUUGGCGCCGGGUGGGCAACAUUCCGAGGGGACCGUCCCCUCGGUAAUGGCGAAUGGGACCCA [C26U C36G]
Second: GGCCGGCAUGGUCCCAGCCUCCUCGCUGGCGCCGGCUGGGCAACAUUCGGAGGGGACCGUCCCCACGGUAAUGGCGAAUGGGACCCA [C49G U65A]
The self-cleavage of the first is lower: 0.162 for the first, 0.573 for the second.

First: GGCCGGCAUGGUCCCAGCCUCCUCGCUGGCGCCGGCUGGGCAACAUUUCGAGGGGACCGUCUCCUCGGUAAUGGCGAAUGGGACCCA [C48U C62U]
Second: GGCCGGCAUGGUCCCAGCCUCCUCGCUGGCGCCGGCUGGGCAACAUUCCGAGGGGACCGUCCCCUCGCUAAUCGCGAAUGGGACCCA [G68C G73C]
The self-cleavage of the first is higher: 1.15 for the first, 0.0511 for the second.

Source: the RNAGym collection of RNA variant scans (doi:10.7554/elife.80360)
